Publication PMC9991911, “IMM0306, a fusion protein of CD20 mAb with the CD47 binding domain of SIRPα, exerts excellent cancer killing efficacy by activating both macrophages and NK cells via blockade of CD47-SIRPα interaction and FcɣR engagement by simultaneously binding to CD47 and CD20 of B cells” (Leukemia, 2022)

Assays:
CD20 (Biacore assay) = CD20 (Biacore assay) (UniProt P11836); experiment: SPR; Biacore assay; who was immobilised and the conditions not given
CD47 (Biacore assay) = CD47 (Biacore assay) (UniProt Q08722); experiment: as above
[1] = target: CD47 on Jurkat cells (human (endogenous in Jurkat)) (UniProt Q08722); experiment: flow cytometry on cells; cultured cells (Jurkat; Raji-CD47KO; cells with both targets) stained with IMM0306, then secondary antibody anti-human IgG (Fc)-FITC; data analysed with GraphPad Prism 8.0
CD47/CD20 double targets = experiment: as above
[2] = target: T1, CD20 on Raji-CD47KO cells (Homo sapiens (endogenous, Raji-CD47KO), UniProt P11836); experiment: as above; details: one partner purified
T1 construct: CD20, endogenous on Raji-CD47KO cells; also called CD20 target on Raji-CD47KO cells; CD20-positive cells (Raji-CD47KO); source: endogenous, on Raji-CD47KO cells (Raji with human CD47 knockout, in-house)
T1 sequence (P11836 whole entry): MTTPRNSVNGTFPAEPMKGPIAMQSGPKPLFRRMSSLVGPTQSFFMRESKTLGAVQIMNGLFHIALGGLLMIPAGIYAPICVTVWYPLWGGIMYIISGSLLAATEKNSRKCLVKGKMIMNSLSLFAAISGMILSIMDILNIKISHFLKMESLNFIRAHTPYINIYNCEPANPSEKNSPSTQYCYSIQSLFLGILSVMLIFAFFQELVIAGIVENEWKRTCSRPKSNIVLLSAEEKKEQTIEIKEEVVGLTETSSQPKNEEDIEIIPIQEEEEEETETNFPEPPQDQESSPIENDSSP

CD47 on Jurkat cells (human (endogenous in Jurkat)), sequence (Q08722 19-323): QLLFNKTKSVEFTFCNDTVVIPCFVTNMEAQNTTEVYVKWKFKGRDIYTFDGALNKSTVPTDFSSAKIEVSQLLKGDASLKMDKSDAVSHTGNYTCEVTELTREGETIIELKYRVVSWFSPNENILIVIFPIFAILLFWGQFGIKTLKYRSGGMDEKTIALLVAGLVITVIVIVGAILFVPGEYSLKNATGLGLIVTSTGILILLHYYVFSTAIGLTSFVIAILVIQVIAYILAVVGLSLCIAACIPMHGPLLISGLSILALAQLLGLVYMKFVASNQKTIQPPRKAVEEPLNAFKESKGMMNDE
CD47 (Biacore assay), sequence (Q08722 19-323): as above
CD20 (Biacore assay), sequence (P11836 whole entry): as the sequence (P11836 whole entry) above

Kd (CD20 (Biacore assay)): 2.45 nM
Kd (CD47 (Biacore assay)): 4.91 nM
EC50 [1]: 16.8 nM
EC50 (CD47/CD20 double targets): 11.5 nM
EC50 [2]: 18.9 nM
B1: IMM0306, a fusion protein of CD20 mAb with the CD47 binding domain of SIRPα (bispecific antibody, V domains shown)
VH: QVQLQQPGAELVKPGASVKMSCKASGYTFTSYNMHWVKQTPGRGLEWIGAIYPGNGDTSYNQKFKGKATLTADKSSSTAYMQLSSLTSEDSAVYYCARSTYYGGDWYFNVWGAGTTVTVSA
VL: QIVLSQSPAILSASPGEKVTMTCRASSSVSYIHWFQQKPGSSPKPWIYATSNLASGVPVRFSGSGSGTSYSLTISRVEAEDAATYYCQQWTSNPPTFGGGTKHELK
notes: IgG1; only the SIRPα D1 part can be built; also called CD47xCD20 mAb trap; source: in-house developed CHO-K1 cell expression system; copies: 2 +
